# Measured values as given in paper PMC8249747.
# Target: T1, QseA (YhcS, AaeR) (Escherichia coli K-12 W3110 type-A) (UniProt P67662)
# T1 sequence: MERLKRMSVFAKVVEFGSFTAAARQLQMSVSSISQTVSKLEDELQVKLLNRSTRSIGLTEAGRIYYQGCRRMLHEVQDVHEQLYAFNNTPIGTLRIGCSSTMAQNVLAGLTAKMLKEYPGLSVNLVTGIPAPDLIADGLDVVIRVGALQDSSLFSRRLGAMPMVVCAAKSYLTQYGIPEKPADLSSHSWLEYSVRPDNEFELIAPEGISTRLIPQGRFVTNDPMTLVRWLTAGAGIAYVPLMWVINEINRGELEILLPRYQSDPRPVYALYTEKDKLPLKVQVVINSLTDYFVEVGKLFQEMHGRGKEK
# Experiment: EMSA
# Settings: EMSA: gel shift buffer (composition not given), 37 C 30 min, PAGE, GelRed, footprinting: 1.0 pmol FITC probe, 25 C 30 min, 5 ng …
sequence,measurement,value
GCGTTTTAGTCGTTCCATTATTCACTCTGACTTAAAAGTGATTTAGATCACATAATATAGATAACAGCATAACAGTTACGCTAATATATTAAATATCAATCTACAGCAATGTTGCTCTCGCCCGGCTTTCCATGCCCTTCTCTGCGGCGACAGATGCTGAAAATAATAACGCCTGCTCTCTCTTTACAACCAAGGTCAACATGAGTCTGTTTCCCGTTAT (double strand) [aaeX/qseA spacer probe (gel shift)],binding,binds
